This is an account of results in patent publication US20260201038A1 (CELLABMED, published 2026).

Assay [1] concerns the target B7-H3 on human cancer cells (human) (UniProt Q5ZPR3). Nature of the assay: cell-based or functional assay.
Assay [2] deals with T1, ….
T1 sequence (peptide): EVQVPEDPVVALVGT
Nature of the assay: peptide microarray, 15-mers of human 4Ig B7-H3; panel Ig-like-V type 1.

The next assay has as its target B7-H1 (UniProt Q9NZQ7 19-239). Nature of the assay: indirect ELISA, B7-H1 coated at 1 ug/mL, absorbance at 450 nm. On the procedure:
[The procedure below names another target; the source lists this target under the same test.] The binding ability of 2D IgG prepared in Example 2 for recombinant B7-H3 protein was investigated by indirect ELISA. For indirect ELISA, recombinant human 4lg B7-H3, recombinant human 2lg B7-H3 and recombinant mouse B7-H3 were diluted respectively to 1 μg/mL in 50 μL of PBS and adsorbed overnight onto a 96-well immunoplate (Corning, USA) by storing at 4° C. After reaction with a buffer solution containing 3% bovine serum albumin at room temperature for 1 hour, followed by washing 3 times with a buffer solution containing 0.5% Tween 20, each well was treated with 50 μL of the antibodies diluted serially (0.0001, 0.0003, 0.001, 0.003, 0.01, 0.03, 0.1, 0.3, 1, 3 and 10 nM). For antigen-antibody binding, the mixture was reacted at room temperature for 2 hours, and then washed 3 times with a buffer solution containing 0.5% Tween 20. After treating each well with 50 μL of anti-human immunoglobulin Fc-HRP antibodies (Jackson Immunoresearch, USA) diluted to 1:3,000, reaction was conducted at room temperature for 1 hour. […] As a result of measuring absorbance at 450 nm using a spectrophotometer (Biotek, USA), it was confirmed that 2D IgG binds to B7-H3, and the binding ability was in the order of 4lg B7-H3, 2lg B7-H3 and mouse B7-H3 (FIG. 2a). […]
Background: In an ELISA, binding on a coated surface is turned into a signal by an enzyme label.

For assay [3], the target named is B7-H3 on human cancer cells (human) (UniProt Q5ZPR3). Nature of the assay: flow cytometry on U251 brain tumor cells; control (secondary antibody only) < 10%.
For the next assay, the target named is T2, TGALEVQVPEDPVVA
T2 construct: 15-mer of human 4Ig B7-H3 on the peptide microarray, panel Ig-like-V type 1
T2 peptide: TGALEVQVPEDPVVA
The experiment in a line: peptide microarray, 15-mers of human 4Ig B7-H3; panel Ig-like-V type 1. On the procedure: (§1) It was confirmed that G2D IgG has linear epitopes since G2D was verified to recognize 4lg B7-H3 through western blot (FIG. 10a). Therefore, linear epitope mapping was conducted by Pepperprint GmbH (Germany). After preparing a peptide microarray from the 15 4lg B7-H3 amino acids with 14-amino acid overlaps, the antibodies binding to peptides were identified using secondary antibodies (FIG. 10b). As a result, it was confirmed that G2D IgG binds to a peptide having a sequence of EVQVP (FIG. 10c). EVQVP is located in the Ig-like V-type1 and Ig-like V-type2 domains of 4lg B7-H3 (FIGS. 10d and 10e). When the epitopes of the control antibody enoblituzumab were identified by the same method, it was confirmed that the epitopes include the sequence of GYPEAE (FIG. 10b), and GYPEAE is located in the Ig-like C2-type1 and Ig-like C2-type2 domains of 4lg B7-H3 (FIGS. 10d and 10e). As a result, it was confirmed that G2D IgG and the control antibody enoblituzumab have different epitopes.

A further assay has as its target T3, GALEVQVPEDPVVAL
T3 construct: 15-mer of human 4Ig B7-H3 on the peptide microarray, panel Ig-like-V type 1
T3 peptide: GALEVQVPEDPVVAL
The assay is described as above. On the procedure:
as §1

The target in another assay is T4, LEVQVPEDPVVALVG
T4 construct: 15-mer of human 4Ig B7-H3 on the peptide microarray, panel Ig-like-V type 1
T4 peptide: LEVQVPEDPVVALVG
Described as above. On the procedure:
as §1

Another assay concerns the target T5, ALWFCLTGALEVQVP
T5 construct: 15-mer of human 4Ig B7-H3 on the peptide microarray, panel Ig-like-V type 1
T5 peptide: ALWFCLTGALEVQVP
The assay is described as above. As for the experimental part: as §1

A further assay deals with T6, LWFCLTGALEVQVPE
T6 construct: 15-mer of human 4Ig B7-H3 on the peptide microarray, panel Ig-like-V type 1
T6 peptide: LWFCLTGALEVQVPE
The assay is described as above. As for the experimental part: as §1

The next assay concerns the target T7, WFCLTGALEVQVPED
T7 construct: 15-mer of human 4Ig B7-H3 on the peptide microarray, panel Ig-like-V type 1
T7 peptide: WFCLTGALEVQVPED
The description is as above. On the procedure: as §1

Another assay has as its target T8, FCLTGALEVQVPEDP
T8 construct: 15-mer of human 4Ig B7-H3 on the peptide microarray, panel Ig-like-V type 1
T8 peptide: FCLTGALEVQVPEDP
The assay is described as above. On the procedure: as §1

A further assay concerns the target T9, CLTGALEVQVPEDPV
T9 construct: 15-mer of human 4Ig B7-H3 on the peptide microarray, panel Ig-like-V type 1
T9 peptide: CLTGALEVQVPEDPV
Described as above. On the procedure:
as §1

In another assay the target is T10, LTGALEVQVPEDPVV
T10 construct: 15-mer of human 4Ig B7-H3 on the peptide microarray, panel Ig-like-V type 1
T10 peptide: LTGALEVQVPEDPVV
The assay is described as above. As for the experimental part: as §1

Assay [4] concerns the target B7-H3 on human cancer cells (human) (UniProt Q5ZPR3). The experiment in a line: flow cytometry on A2780 ovarian cancer cells; control (secondary antibody only) < 5%.
For assay [5] the target is unchanged. Nature of the assay: flow cytometry on HepG2K liver cancer cells; control (secondary antibody only) < 20%. On the technique in general: A flow cytometer gives signals particle by particle.
Assay [6] shares this target. Nature of the assay: flow cytometry on NCI-H1975 lung cancer cells; control (secondary antibody only) < 5%.
For assay [7] the target is unchanged. Nature of the assay: flow cytometry on MIA-PaCa2 pancreatic cancer cells; control (secondary antibody only) < 25%.

Chain of B7-H1 (Q9NZQ7 19-239 limits assumed): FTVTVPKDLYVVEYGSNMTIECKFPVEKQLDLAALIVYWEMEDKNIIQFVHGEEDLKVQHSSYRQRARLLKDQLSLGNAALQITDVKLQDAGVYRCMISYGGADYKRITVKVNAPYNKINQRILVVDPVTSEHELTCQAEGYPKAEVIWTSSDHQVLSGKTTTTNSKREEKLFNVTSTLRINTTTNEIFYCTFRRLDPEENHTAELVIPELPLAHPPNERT

B1: G2D IgG (antibody, V domains shown)
VH: QVQLVESGGGLVQPGGSLRLSCSASGFDFSSYPMVWVRQAPGKGLEYVSSINSGGSWTGYGAAVKGRATISRDNSKNTLYLQMNSLRAEDTATYYCARAYGAATIDAWGQGTTVTVSS
VL: SYELTQPPSVSVSPGQTARITCSGGSIGYGWYQQKAPGQAPVTVIYYNDRRPSGIPERFSGSKSGTTNTLTISGVQAEDEADYYCGSADSSSTYTGIFGGGTKLTVL
notes: The back-substitutions (L46T, S66K, V71N in VL); also called humanized 2D; G2D antibody
On to B1, for which the T cell-mediated A549 cell-killing effect (GFP fluorescence of A549 cells after 48 h co-culture with activated PBMCs; negative control group = 100) in assay [1] is 69.3. The molecule further showed a T cell-mediated cancer cell-killing effect as compared to the negative control group in assay [1] of 30%. Moreover, the fluorescence intensity of the peptide spot in assay [2] was 16; in the assay with TGALEVQVPEDPVVA it was 21; in the assay with GALEVQVPEDPVVAL it was 20; with LEVQVPEDPVVALVG, 30.5; with ALWFCLTGALEVQVP, 122; with LWFCLTGALEVQVPE, 17.3. The “fluorescence intensity of the peptide spot” value stood at 24.8 in the assay with WFCLTGALEVQVPED, 63 with FCLTGALEVQVPEDP, 138 in the assay with CLTGALEVQVPEDPV and 154 with LTGALEVQVPEDPVV. In the assay with B7-H1, the binding result is listed as “no binding (tested: 10 nM)”. Further, the % of cells in the positive gate was > 95% in [3]; > 95% in assay [4]; > 95% in assay [5]; > 80% in assay [6]; > 95% in assay [7].
